For 1 substance, stoichiometry N results are on record in publication PMC11392913.

In the assay the target is H. pylori PflB_(Δ140), the periplasmic α-helical domain of paralyzed flagellum protein B (Helicobacter pylori (strain SS1)). Put plainly: SEC; Superdex 200 10/300 GL, 20 mM Tris-HCl pH 8.0, 150 mM NaCl, 10% glycerol, 4 CMC LDAO; mass from a calibration with globular standards. On the technique in general: In gel filtration, larger molecules generally elute earlier.

In the case of “H. pylori PflB_(Δ140), the periplasmic α-helical domain of paralyzed flagellum protein B (domain or fragment)”, the stoichiometry N (as a rule, a count of units in the complex or per binding partner) was > 4.
